In this assay the target is F protein on live RSV virus (strain not stated) (respiratory syncytial virus). The experiment in a line: cell-based or functional assay.

Synagis® (palivizumab) (antibody): the IC50, plaque neutralization assay on HEp2 cells with rabbit complement worked out at 0.3 µg/mL and the affinity corresponding to the IC50 of the plaque neutralization assay came to 2 nM.
